For assay [1], the target named is T1, human CD19 (human, UniProt P15391 20-556).
T1 sequence: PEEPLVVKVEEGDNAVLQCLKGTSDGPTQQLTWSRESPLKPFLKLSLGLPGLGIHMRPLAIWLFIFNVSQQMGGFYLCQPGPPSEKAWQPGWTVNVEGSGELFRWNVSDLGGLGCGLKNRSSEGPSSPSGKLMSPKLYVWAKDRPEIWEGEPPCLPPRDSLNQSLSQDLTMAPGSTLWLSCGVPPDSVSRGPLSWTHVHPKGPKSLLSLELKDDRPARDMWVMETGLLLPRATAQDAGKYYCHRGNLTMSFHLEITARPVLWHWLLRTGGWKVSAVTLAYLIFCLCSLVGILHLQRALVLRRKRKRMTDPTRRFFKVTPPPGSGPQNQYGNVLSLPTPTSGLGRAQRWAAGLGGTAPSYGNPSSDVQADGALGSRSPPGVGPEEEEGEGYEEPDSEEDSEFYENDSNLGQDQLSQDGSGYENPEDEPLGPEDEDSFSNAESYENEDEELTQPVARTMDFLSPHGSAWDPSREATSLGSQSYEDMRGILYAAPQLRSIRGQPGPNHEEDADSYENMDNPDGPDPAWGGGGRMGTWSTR
The assay can be described thus: flow cytometry, HIS-tagged scFv bacterial supernatant on CD19-transfected HEK293 cells (FIG. 8A). The source says:
(§1) A third scFv library was generated by shuffling the VH sequences from the selection in (a) with the VL sequences resulting from the selection in (b). […] Binding by the selected scFv clones to CD19-expressing cells was confirmed by flow cytometry using bacterially-produced supernatant. The selected scFv pools were cloned into E. coli expression vectors and produced as HIS-tagged scFvs. Binding of individual clones to CD19-transfected HEK293 cells was detected with anti-HIS-Alexa647 conjugate by flow cytometry.
Background: In flow cytometry, cells or beads pass a laser one at a time.

The target in assay [2] is T1, human CD19. The assay can be described thus: flow cytometry on CD19-expressing cells (n = 4).
The target in assay [3] is T1, human CD19. The assay can be described thus: flow cytometry competition for binding with FMC63 (n = 1).
The target of assay [4] is T1, human CD19. Put plainly: flow cytometry on CD19-expressing cells (n = 1). The source says: Various clones were titrated and their binding affinity (EC50) to various CD19-expressing cells assessed by flow cytometry.
Assay [5] concerns the target T1, human CD19. Put plainly: flow cytometry on CD19-expressing cells (n = 3).
Assay [6] deals with T1, human CD19. The assay can be described thus: flow cytometry competition for binding with FMC63 (n = 2).
Assay [7] has as its target T1, human CD19. Put plainly: flow cytometry, scFv titrated on CD19-expressing K562 cells (FIG. 4, another plate).
In assay [8] the target is T1, human CD19. The assay can be described thus: flow cytometry, scFv titrated on CD19-expressing K562 cells (FIG. 3A).
Assay [9] addresses T1, human CD19. Put plainly: flow cytometry competition for binding with FMC63 (n = 3).
The target of assay [10] is T1, human CD19. The assay can be described thus: flow cytometry, scFv titrated on CD19-expressing K562 cells (FIG. 4, one plate).
In assay [11] the target is T1, human CD19. The assay can be described thus: flow cytometry, HIS-tagged scFv bacterial supernatant on CD19-transfected HEK293 cells (FIG. 8B).
Text: as §1

Experimental findings from patent publication US20240018256A1 (JUNO THERAPEUTICS, published 2024) are described below.

What is called EC50 is the concentration giving half of the maximal effect. A word on the IC50: it is the concentration that gives 50% inhibition.

B1: Clone 272 scFv (scFv)
scFv: EVQLVESGGGLVQPGRSLRLSCAASGFTFDDYAMHWVRQAPGKGLEWVSGISWNSGRIGYADSVKGRFTISRDNAKNSLFLQMNSLRAEDTAVYYCARDQGYHYYDSAEHAFDIWGQGTVVTVSSGGGGSGGGGSGGGGSQSVLTQPPSVSAAPGQKVTISCSGSSSNIGNNYVSWYQQLPGTAPKLLIYDNNKRPSGIPDRFSGSKSGTSATLGITGLQTGDEADYYCGTWDSSLNRDWVFGGGTKLTVL
notes: HIS- or FLAG-tagged
For the molecule B1, in assay [1], the binding result was “binds”.

B2: Clone 328 scFv (scFv)
scFv: QVQLVESGGGLVQPGRSLRLSCAASGFTFDDYAMHWVRQAPGKGLEWVSGISWNSGRIGYADSVKGRFTISRDNAKNSLFLQMNSLRAEDTAVYYCARDQGYHYYDSAEHAFDIWGQGTVVTVSSGGGGSGGGGSGGGGSQSALTQPASVSGSPGHSITISCTGTRSDVGGFDYVSWYQHNPGKAPKLIIYDVTKRPSGVSNRFSGAKSGITASLTISGLQAEDEADYYCTSYRPGPTFVFGTGTKLTVL
notes: Human scFv
Consider B2, for which the EC50 in assay [2] worked out at 10.9 nM. For the same molecule, the IC50 in [3] is 32.9 nM.

B3: Clone 505 scFv (scFv)
scFv: EVQLVESGGGLVQPGRSLRLSCAASGFTFDDYAMHWVRQAPGKGLEWVSGISWNSGRIGYADSVKGRFTISRDNAKNSLFLQMNSLRAEDTAVYYCARDQGYHYYDSAEHAFDIWGQGTMVTVSSQSVLTQPRSLSGSPGQSVTIACTGASTDVGGYNYVSWYQQHPGKAPKLMIYDVNKRPSGVPDRFSGSKSGNTAFLTISGLQAEDEADYYCCSYAGSYTFEVFGGGTKLTVL
B3 returned an EC50 in [4] of 139 nM.

B4: Clone 1300 scFv (scFv)
scFv: QMQLVQSGGGLVQPGRSLRLSCAASGFTFDDYAMHWVRQAPGKGLEWVSGISWNSGSIGYADSVKGRFTISRDNAKNSLYLQMNSLRAEDTAVYYCARDQGYHYYDSAEHAFDIWGQGTVVTVSSGGGGSGGGGSGGGGSAIRMTQSPSTLSASVGDRVTITCRASQSISHYLAWYQQKPGKAPKLLIFDASRLASGVPSRFSGSGSGTDFTLTISSLQPEDFATYYCQQSYGAPMFTFGPGTRVDLK
notes: Human scFv
In turn, B4 returned a concentration giving a half-maximal response (EC50) in [5] of 1.3 nM. In assay [6], the IC50 turned out to be 3.9 nM.

B5: Clone 192 scFv (scFv)
scFv: EVQLVESGGGLVQPGRSLRLSCAASGFTFDDYAMHWVRQAPGKGLEWVSGISWNSGRIGYADSVKGRFTISRDNAKNSLFLQMNSLRAEDTAVYYCARDQGYHYYDSAEHAFDIWGQGTMVTVSSGGGGSGGGGSGGGGSQAVLTQPRSVSGSPGQSVTISCTGISSGVDSHRYVSWYQHHPGKAPKLMIYDFSKRPSGVPDRFSGSKSGNTASLTISGLQAEDEADYYCCSYAAISPNYVFGTGTKLTVL
notes: Human scFv
On to B5, for which the results for the concentration for a half-maximal effect (EC50) in [7] and in assay [8] were 12 nM and 12.8 nM, respectively.

B6: Clone 192B scFv (scFv)
scFv: QVQLVESGGGLVQPGRSLRLSCAASGFTFDDYAMHWVRQAPGKGLEWVSGISWNSGRIGYADSVKGRFTISRDNAKNSLFLQMNSLRAEDTAVYYCARDQGYHYYDSAEHAFDIWGQGTMVTVSSGGGGSGGGGSGGGGSQAVLTQPRSVSGSPGQSVTISCTGISSGVDSHRYVSWYQHHPGKAPKLMIYDFSKRPSGVPDRFSGSKSGNTASLTISGLQAEDEADYYCSSYAAISPNYVFGTGTKLTVL
notes: Human scFv
In turn, B6 had an IC50 in assay [9] of 15.7 nM. The molecule also displayed an EC50 in assay [5] of 7.7 nM.

B7: Clone 227 scFv (scFv)
scFv: EVQLVQSGGGLVQPGRSLRLSCAASGFTFDDYAMHWVRQAPGKGLEWVSGISWNSGSIGYADSVKGRFTISRDNAKNSLYLQMNSLRAEDTAVYYCARDQGYHYYDSAEHAFDIWGQGTVVTVSSGGGGSGGGGSGGGGSDIQLTQSPSTLSASVGDRVTITCRASQSISRWLAWYQQKPGKAPKLLIYDASNLETGVPSRFSGSGSGTDFTFTISSLQPEDIATYYCQQYDNLPLTFGGGTKVEIK
notes: Human scFv
B7 showed a concentration for a half-maximal effect (EC50) in assay [5] of 31.8 nM. Also, the IC50 in assay [6] amounted to 56.1 nM.

B8: Clone 184 scFv (scFv, V domains shown)
VH: QVQLVESGGGLVQPGRSLRLSCAASGFTFDDYAMHWVRQAPGKGLEWVSGISWNSGRIGYADSVKGRFTISRDNAKNSLFLQMNSLRAEDTAVYYCARDQGYHYYDSAEHAFDIWGQGTMVTVSS
As for B8, the EC50 in assay [4] and in [7] was 114 nM throughout.

B9: Clone 1 scFv (scFv)
scFv: EVQLVESGGGLVQPGRSLRLSCAASGFTFDDYAMHWVRQAPGKGLEWVSGISWNSGRIGYADSVKGRFTISRDNAKNSLFLQMNSLRAEDTAVYYCARDQGYHYYDSAEHAFDIWGQGTMVTVSSGGGGSGGGGSGGGGSQSALTQPASVSGSPGQSITISCTGTSSDVGAYNFVSWYQQLPGTAPKFLIYDNNKRPPGIPDRFSGSKSGTSATLGITGLQTGDEADYYCATWDSGLSAVVFGGGTKLTVL
notes: Human scFv
For the molecule B9, the concentration for a half-maximal effect (EC50) in [4] and in assay [10] was 214 nM in each case.

B10: Clone 79 scFv (scFv)
scFv: EVQLVESGGGLVQPGRSLRLSCAASGFTFDDYAMHWVRQAPGKGLEWVSGISWNSGRIGYADSVKGRFTISRDNAKNSLFLQMNSLRAEDTAVYYCARDQGYHYYDSAEHAFDIWGQGTVVTVSSGGGGSGGGGSGGGGSQSVLTQPPSVSAAPGQKVTISCSGSSSNIGNNYVSWYQQLPGTAPKLLIYDNNKRPSGIPDRFSGSKSGTSATLGITGLQTGDEGDYYCGTWDISLRFGVFGGGTKVTVL
notes: Human scFv
For B10, in assay [4], the EC50 worked out at 65.7 nM. Further, the IC50 in [3] was found to be 102 nM.

B11: Clone 285 scFv (scFv)
scFv: EVQLVESGGGLVQPGRSLRLSCAASGFTFDDYAMHWVRQAPGKGLEWVSGISWNSGRIGYADSVKGRFTISRDNAKNSLFLQMNSLRAEDTAVYYCARDQGYHYYDSAEHAFDIWGQGTVVTVSSGGGGSGGGGSGGGGSQSALTQPASVSGSPGQSITISCTGTSSDLGGYNYVSWYQHRPGKAPKLIIYDVTVRPSGVSDRFSGSKSGNTASLTISGLQAEDEADYYCGSYTSSSTLLWVFGGGTKLTVL
notes: Human scFv
For the molecule B11, the IC50 in [9] stood at 9.4 nM. Moreover, the EC50 in assay [2] came out at 2.5 nM.

B12: Clone 283 scFv (scFv)
scFv: QVQLVESGGGLVQPGRSLRLSCAASGFTFDDYAMHWVRQAPGKGLEWVSGISWNSGRIGYADSVKGRFTISRDNAKNSLFLQMNSLRAEDTAVYYCARDQGYHYYDSAEHAFDIWGQGTVVTVSSGGGGSGGGGSGGGGSQSALTQPASVSGSPGQSITISCTGTSSDLGGYNYVSWYQHRPGKAPKLIIYDVTVRPSGVSDRFSGSKSGNTASLTISGLQAEDEADYYCGSYTSSSTLLWVFGGGTKLTVL
notes: HIS- or FLAG-tagged
For B12, the binding result in assay [1] is “binds”.

B13: Clone 302 scFv (scFv)
scFv: QVQLVESGGGLVQPGRSLRLSCAASGFTFDDYAMHWVRQAPGKGLEWVSGISWNSGRIGYADSVKGRFTISRDNAKNSLFLQMNSLRAEDTAVYYCARDQGYHYYDSAEHAFDIWGQGTVVTVSSGGGGSGGGGSGGGGSQSALTQPASVSGSPGQSITISCTGTSSDLGGYNYVSWYQHRPGKAPKLIIYDVTVRPSGVSDRFSGSKSGNTASLTISGLQAEDEADYYCGSYTSSSTLLWVFGGGTKLTVL
notes: HIS- or FLAG-tagged
On to B13, for which, in assay [11], the binding result is “binds”.

B14: Clone 506 scFv (scFv)
scFv: EVQLVESGGGLVQPGRSLRLSCAASGFTFDDYAMHWVRQAPGKGLEWVSGISWNSGRIGYADSVKGRFTISRDNAKNSLFLQMNSLRAEDTAVYYCARDQGYHYYDSAEHAFDIWGQGTMVTVSSGGGGSGGGGSGGGGSQLVLTQPPSVSGSPGQSVTFSCTGASSDVGGYDHVSWYQHHPGKGPKLLIYDVSKRPSGVPDRFSGSKSGNTASLTISGLQAEDEADYYCCSFAGYYTYWLFGGGTKVTVL
notes: Human scFv
Regarding B14, the EC50 in assay [4] was found to be 179 nM.
